Measured values published in patent publication US5945513.

Target: soluble recombinant human gp39 (CD8-gp39 fusion protein) (murine; human)

inhibition of shgp39/IF5 or shgp39/PMA driven tonsillar B cell proliferation: 50 % inhibition
Substance: CD40-Ig (modified by L234F, L235E and G237A in the immunoglobulin domain) (from UniProt P25942) (Fc fusion)
